The target of test [1] is dynactin (purified from pig brains) (pig (endogenous in pig brain)) (UniProt F2Z5G5). In words: cryo-EM structure.
For test [2] the target is unchanged. In words: negative-stain EM with 3D classification.
In test [3] the target is dynein tail (HC^1-1455) complex (human) (UniProt Q14204). The experiment in a line: negative-stain EM with 3D classification.
Test [4] deals with wild-type human cytoplasmic dynein-1, SNAPf-tagged, labelled with TMR or Alexa647 (human) (UniProt Q14204).

As usually defined, the stoichiometry N is the number of molecules, sites or subunits per partner or assembly. With “dynein tail (HC^1-1455) complex (from UniProt Q14204;O43237;P63172;P63167;Q9NP97)”, the stoichiometry N in test [1] was 2. The percent of adaptor complexes with one dynein (with m5) in test [2] was determined as 69%. Besides, in test [3], the percent of adaptor complexes with two dyneins (with m2 and m4) was determined as 88%; the percent of adaptor complexes with two dyneins (with m2 and m5) is 17%; the percent of adaptor complexes with two dyneins (with m2 and m6) came out at 94%.
“wild-type human cytoplasmic dynein-1, SNAPf-tagged, labelled with TMR or Alexa647 (from UniProt Q14204;O43237;P63172;P63167;Q9NP97) (complex)”: in test [4], the velocity of BICD2 complexes containing both fluorophores, and hence two dyneins is 1.08 μm/s.

The values above are taken from article PMC5988349.
